B1: ATP1B2 (Na/K-ATPase β2 subunit): N96Q (protein)
parent chain: MVIQKEKKSCGQVVEEWKEFVWNPRTHQFMGRTGTSWAFILLFYLVFYGFLTAMFTLTMWVMLQTVSDHTPKYQDRLATPGLMIRPKTENLDVIVNVSDTESWDQHVQKLNKFLEPYNDSIQAQKNDVCRPGRYYEQPDNGVLNYPKRACQFNRTQLGNCSGIGDSTHYGYSTGQPCVFIKMNRVINFYAGANQSMNVTCAGKRDEDAENLGNFVMFPANGNIDLMYFPYYGKKFHVNYTQPLVAVKFLNVTPNVEVNVECRINAANIATDDERDKFAGRVAFKLRINKT
B2: ATP1B2 (Na/K-ATPase β2 subunit): N118Q (protein)
parent chain: B1 parent chain
B3: ATP1B2 (Na/K-ATPase β2 subunit): N153Q (protein)
parent chain: B1 parent chain
B4: ATP1B2 (Na/K-ATPase β2 subunit): N159Q (protein)
parent chain: B1 parent chain
B5: ATP1B2 (Na/K-ATPase β2 subunit): N193Q (protein)
parent chain: B1 parent chain
B6: ATP1B2 (Na/K-ATPase β2 subunit): N197Q (protein)
parent chain: B1 parent chain
B7: ATP1B2 (Na/K-ATPase β2 subunit): N238Q (protein)
parent chain: B1 parent chain
B8: ATP1B2 (Na/K-ATPase β2 subunit): N250Q (protein)
parent chain: B1 parent chain

Experiment: Western blot densitometry of ATP1B2 in HEK293
Conditions: glycan lost; control: normal ATP1B2

Row | Protein | expression_or_secretion
1 | B1 | no change
2 | B2 | no change
3 | B3 | no change
4 | B4 | no change
5 | B5 | no change
6 | B6 | no change
7 | B7 | no change
8 | B8 | no change
